From article PMC3546355

Biological target: Cry1Aa toxin-binding region of BtR175 (BtR175-TBR) (Bombyx mori) (UniProt Q9XY09)
Experiment: SPR

“Cry1Aa loop mutant P^367RRP^370 (from UniProt P0A366 1-1176) (ligand)” and “Cry1Aa loop mutant A^310QMA^313 (from UniProt P0A366 1-1176) (ligand)” are within 1.5-fold of each other in Kd: 12.1 nM for the first, 16 nM for the second.

Compared with “Cry1Aa loop mutant G^435LVG^438 (from UniProt P0A366 1-1176) (ligand)”, “Cry1Aa loop mutant V^443ELL^446 (from UniProt P0A366 1-1176) (ligand)” is 1.5-fold higher in Kd: 13.5 nM for the first, 20.4 nM for the second. The first binds more tightly here.

“Cry1Aa loop mutant S^371APN^374 (from UniProt P0A366 1-1176) (ligand)” and “Cry1Aa loop mutant L^367PRP^370 (from UniProt P0A366 1-1176) (ligand)” are the same in Kd: 13.3 nM for the first, 13.3 nM for the second.

“Cry1Aa loop mutant E^439PPA^442 (from UniProt P0A366 1-1176) (ligand)” and “Cry1Aa loop mutant D^439TGN^442 (from UniProt P0A366 1-1176) (ligand)” are within 1.5-fold of each other in Kd: 11.6 nM for the first, 13.5 nM for the second.

Compared with “Cry1Aa loop mutant S^435VVG^438 (from UniProt P0A366 1-1176) (ligand)”, “Cry1Aa loop mutant T^439LRT^442 (from UniProt P0A366 1-1176) (ligand)” is 1.9-fold lower in Kd: 19.9 nM for the first, 10.5 nM for the second. The second binds more tightly here.

“Cry1Aa loop mutant I^443VPV^446 (from UniProt P0A366 1-1176) (ligand)” was tested, and the Kd was 19.9 nM.

First: Cry1Aa loop mutant G^435LVG^438 (from UniProt P0A366 1-1176) (ligand)
Second: Cry1Aa loop mutant V^443ELL^446 (from UniProt P0A366 1-1176) (ligand)
The koff of the first is 2.1-fold higher: 0.00559 s⁻¹ for the first, 0.00272 s⁻¹ for the second.

Compared with “Cry1Aa loop 3 mutant Q^439PRG^442 (from UniProt P0A366 1-1176) (ligand)”, “Cry1Aa loop 3 mutant H^439MPR^442 (from UniProt P0A366 1-1176) (ligand)” is 1.5-fold lower in koff: 0.00162 s⁻¹ for the first, 0.00105 s⁻¹ for the second.

First: Cry1Aa loop mutant D^439TGN^442 (from UniProt P0A366 1-1176) (ligand)
Second: Cry1Aa loop mutant S^435VVG^438 (from UniProt P0A366 1-1176) (ligand)
The koff of the first is 2.3-fold lower: 0.00162 s⁻¹ for the first, 0.00379 s⁻¹ for the second.

First: Cry1Aa loop mutant T^439LRT^442 (from UniProt P0A366 1-1176) (ligand)
Second: Cry1Aa loop mutant I^443VPV^446 (from UniProt P0A366 1-1176) (ligand)
The koff of the first is 2-fold lower: 0.00158 s⁻¹ for the first, 0.00316 s⁻¹ for the second.

“Cry1Aa loop mutant V^443ELL^446 (from UniProt P0A366 1-1176) (ligand)” and “Cry1Aa loop mutant E^439PPA^442 (from UniProt P0A366 1-1176) (ligand)” are within 1.5-fold of each other in kon: 133000 M⁻¹ s⁻¹ for the first, 121000 M⁻¹ s⁻¹ for the second.

“Cry1Aa loop mutant T^439LRT^442 (from UniProt P0A366 1-1176) (ligand)” and “Cry1Aa loop mutant I^443VPV^446 (from UniProt P0A366 1-1176) (ligand)” are within 1.5-fold of each other in kon: 151000 M⁻¹ s⁻¹ for the first, 158000 M⁻¹ s⁻¹ for the second.
